Data from patent US20040167074A1, “Therapeutic applications of mFLINT polypeptides” (priority 1998, published 2004).

Assays:
TNFα = molecular target: T1, TNFα (Homo sapiens, UniProt P01375); assay: Dot blot binding of mFLINT to TNF ligands
T1 construct: purchased

osteoclasts = assay: Porcine osteoclast differentiation assay (TRAP staining); type: cell-based, pig; conditions: mean and standard error of 6 wells
Source text: Neonatal pigs (aged 1-5 days) were euthanized with CO2, the appendages were rinsed with 70% ethanol, the soft tissues were removed, and the humeri, radii, ulnae, femora, tibiae and fibulae were excised. The long bones were placed in ice-cold calcium and magnesium-free Hank's balanced salt solution (CMF-HBSS, Gibco BRL) and cleaned of all soft tissues. The bones were split longitudinally and the endosteal surfaces were scraped to remove both the marrow and trabecular bone. The suspension of trabecular bone particles and marrow cells was agitated by vigorous shaking and passed through a […] and then […] sieve. Cells were centrifuged at 500×g for 10 minutes at 4° C., the pellet was resuspended in CMF-HBSS, and then separated on a Ficoll-Paque gradient (Pharmacia, Piscataway, N.J.). The mononuclear cell fraction from the gradient was washed twice in CMF-HBSS and passed through a […] sieve. The cells were suspended in growth medium consisting of a-MEM (pH 7.2, which was modified to contain 8.3 mM NaHCO3 (Gibco BRL, Grand Island, N.Y.)), 10% heat-inactivated fetal bovine serum (FBS, Hyclone, Logan, Utah) and 2% antibiotic/antimycotic solution (Gibco BRL, Grand Island, N.Y.) and seeded onto tissue culture dishes at a density of 1×10^6 cells/cm^2. A typical marrow cell yield was between 1-2×10^9 cells/animal, which varied with the size of the animal. The cells were incubated at 37° C. in a humid incubator with 5% CO2. […] Following 5 days of culture, the cells were fixed with formalin (3.7% for 10 min) and then stained for tartrate-resistant acid phosphatase (TRAP) as in Example 6. The number of osteoclasts (TRAP-positive cells containing 3 or more nuclei) was quantitated.

TNFβ = molecular target: T2, TNFβ (Homo sapiens, UniProt P01374); assay: Dot blot binding of mFLINT to TNF ligands
T2 construct: purchased
T2 sequence (P01374 35-205): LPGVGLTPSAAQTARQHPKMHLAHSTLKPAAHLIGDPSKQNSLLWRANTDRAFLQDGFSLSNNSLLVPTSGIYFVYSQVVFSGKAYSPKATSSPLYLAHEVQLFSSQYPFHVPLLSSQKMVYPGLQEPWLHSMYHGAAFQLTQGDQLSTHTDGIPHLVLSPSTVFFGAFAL

TRAIL = molecular target: T3, TRAIL (Homo sapiens, UniProt P50591); assay: Dot blot binding of mFLINT to TNF ligands
T3 construct: purchased RnD Systems
T3 sequence (P50591 114-281 limits assumed, species assumed): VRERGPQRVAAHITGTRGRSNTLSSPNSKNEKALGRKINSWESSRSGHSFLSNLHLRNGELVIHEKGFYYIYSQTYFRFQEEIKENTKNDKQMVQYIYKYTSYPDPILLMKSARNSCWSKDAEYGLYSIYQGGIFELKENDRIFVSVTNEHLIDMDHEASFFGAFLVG
Protocol: (§1) Dot blot experiment was performed to scan known TNF ligands that are commercially available TRAIL and FasL for interaction with mFLINT.
(§2) TRAIL (RnD Systems) and FasL (Kamiya Biomedical Company) were spotted on a nitrocellulose paper and incubated with purified mFLINT-Flag. mFLINT was washed away and binding mFLINT was detected using anti Flag antibody. Both OPG2Fc and mFLINT-Flag were overexpressed and purified according the examples above. […] The nitrocellulose paper was subsequently mixed with the cell lysate containing FasL-Myc, and further incubated on a rotator for 1 hour at room temperature. Secondary and tertiary incubations were performed with anti-myc antibody and anti-mouse IgG-HRP for 1 hour and 30 minutes respectively.

FasL = molecular target: T4, FasL (Homo sapiens, UniProt P48023); assay: Dot blot binding of mFLINT to TNF ligands; conditions: chemiluminescence detection
T4 construct: made in house
T4 sequence (P48023 1-281): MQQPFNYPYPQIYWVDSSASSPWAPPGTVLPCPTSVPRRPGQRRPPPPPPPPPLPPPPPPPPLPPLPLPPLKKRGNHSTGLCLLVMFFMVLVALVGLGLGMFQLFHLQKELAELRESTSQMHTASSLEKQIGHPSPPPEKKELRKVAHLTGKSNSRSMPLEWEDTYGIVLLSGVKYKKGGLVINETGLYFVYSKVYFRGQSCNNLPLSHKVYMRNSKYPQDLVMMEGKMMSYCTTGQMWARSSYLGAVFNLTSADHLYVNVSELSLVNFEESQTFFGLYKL
Protocol: as §1, §2

Jurkat cells = assay: anti-CD3 induced Jurkat apoptosis (Annexin V/PI, FACS); type: cell-based; set-up: Cell apoptosis (Annexin V, FACS): unit not given here; conditions: for Cell apoptosis (positive staining with Annexin V): Example 12; for Cell apoptosis (Annexin V, FACS): Example 14
Protocol: Non-tissue treated 24 well plates (Decton Dickinson, Mansfield, Mass.) were coated with 0.5 ml of 1 ug/ml anti-CD3 (Farmingen) in PBS for 90 min at 37° C. The plate was washed once with PBS.
Cells were incubated overnight at 37° C. incubator and cells were then stained by Annexin V and PI staining. Apotosis was analyzed by flow cytometer (FACS). Cell apoptosis was indicated by positive staining with Annexin V.

B16 melanoma cells = assay: B16 melanoma subcutaneous tumor growth; type: in vivo; conditions: days 4-13
Protocol: Tumor response was monitored by tumor volume measurements as determined by caliper measurements of two dimensions of the tumors on days 4, 8, 11, 17, 21, 25, 30 and 34. Tumor volume was calculated as a hemi-ellipsoid. The animals were weighed on the same schedule described above.

[1] = test system: Ventricular cardiomyocytes; assay: Hypoxia/reperfusion-induced cardiomyocyte apoptosis (nucleosome DNA ELISA)
Protocol: In particular, cardiomyocytes were incubated under hypoxia conditions for 8 hours, followed by 16 hours of culture under normal O2, which mimics the hypoxic conditions found in ischemic cardiac tissue.
Ventricular cardiomyocytes were isolated from the hearts of 1-3 day-old neonatal rats by trypsin digestion and non-myocytes were eliminated by pre-plating. Primary cultures were plated in special-coated 96-well plates in serum-free medium.
Hypoxia was induced by incubating cultures in glucose-free and oxygen-free (5% Co2 and 95% N2) for 8 hours. Reperfusion was mimicked by a 16 hour incubation in glucose-containing medium under normal oxygen conditions. At the end of this incubation, cardiomyocyte apoptosis was measured by the cytoplasmic nucleosome-associated DNA ELISA method. Test samples were incubated with mFLINT (2 μg/ml or 5 μg/ml) and control samples with Z-YVAD-fmk (50 μM), a commercial caspase inhibitor.

TRANCE = molecular target: T5, TRANCE (Homo sapiens, UniProt O14788); assay: Dot blot binding of mFLINT to TNF ligands
T5 construct: purchased
T5 sequence (O14788 140-317 limits assumed): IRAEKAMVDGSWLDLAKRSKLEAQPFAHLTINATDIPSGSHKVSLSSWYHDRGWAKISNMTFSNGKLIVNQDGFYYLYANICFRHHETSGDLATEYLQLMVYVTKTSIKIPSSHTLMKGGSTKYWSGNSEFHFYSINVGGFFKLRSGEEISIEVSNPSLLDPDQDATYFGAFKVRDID

T1 sequence (P01375 77-233 limits assumed, species assumed): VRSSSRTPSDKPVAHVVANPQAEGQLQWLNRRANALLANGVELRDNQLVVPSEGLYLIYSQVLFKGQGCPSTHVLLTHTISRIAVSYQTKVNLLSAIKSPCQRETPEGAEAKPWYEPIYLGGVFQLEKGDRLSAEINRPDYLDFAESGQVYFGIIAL

B1: mFLINT: mature FLINT without leader peptide (FIG. 3), soluble TNFR superfamily member, made according to Examples 8 and 9 (protein)
chain: VAETPTYPWRDAETGERLVCAQCPPGTFVQRPCRRDSPTTCGPCPPRHYTQFWNYLERCRYCNVLCGEREEEARACHATHNRACRCRTGFFAHAGFCLEHASCPPGAGVIAPGTPSQNTQCQPCPPGTFSASSSSSEQCQPHRNCTALGLALNVPGSSSHDTLCTSCTGFPLSTRVPGAEECERAVIDFVAFQDISIKRLQRLLQALEAPEGWGPTPRAGRAALQLKLRRRLTELLGAQDGALLVRLLQALRVARMPGLERSVRERFLPVH
modifications: glycosylated
With B1 the “binding in dot blot” value (TNFα) was “No appreciable binding”, the Osteoclasts/well (osteoclasts; FLINT 0.01 ng/ml, control 214.83) was 68.83 ± 6.28 Osteoclasts/well and the Osteoclasts/well (osteoclasts; FLINT 0.10 ng/ml) was 176.17 ± 23.01 Osteoclasts/well. The Osteoclasts/well (osteoclasts; FLINT 1.00 ng/ml) was 228.50 ± 17.26 Osteoclasts/well, the Osteoclasts/well (osteoclasts; FLINT 10.00 ng/ml) was 228.50 ± 29.29 Osteoclasts/well and the Osteoclasts/well (osteoclasts; FLINT 100.00 ng/ml) was 382.33 ± 26.59 Osteoclasts/well. For the same molecule, the “binding in dot blot” value (TNFβ) was “No appreciable binding”, the “binding in dot blot” value (TRAIL) was “No appreciable binding” and the “binding in dot blot” value (FasL) was “bound to FasL specifically”. The “Cell apoptosis (positive staining with Annexin V)” value (Jurkat cells; Jurkat + antiCD3 + 1 ug test agent) was 27.77, the “Cell apoptosis (positive staining with Annexin V)” value (Jurkat cells; Jurkat + antiCD3 + 2 ug test agent) was 18.67 and the “Cell apoptosis (Annexin V, FACS)” value (Jurkat cells; anti CD3 + 15.625 ng) was 28.80. For the same molecule, the “Cell apoptosis (Annexin V, FACS)” value (Jurkat cells; anti CD3 + 31.25 ng) was 28.21, the “Cell apoptosis (Annexin V, FACS)” value (Jurkat cells; anti CD3 + 62.5 ng) was 28.99 and the “Cell apoptosis (Annexin V, FACS)” value (Jurkat cells; anti CD3 + 125 ng) was 29.4. The “Cell apoptosis (Annexin V, FACS)” value (Jurkat cells; anti CD3 + 250 ng) was 28.93, the “Cell apoptosis (Annexin V, FACS)” value (Jurkat cells; anti CD3 + 500 ng) was 27.48 and the “Cell apoptosis (Annexin V, FACS)” value (Jurkat cells; anti CD3 + 1000 ng) was 24.29. The “Cell apoptosis (Annexin V, FACS)” value (Jurkat cells; anti CD3 + 2000 ng) was 17.02, the “Cell apoptosis (Annexin V, FACS)” value (Jurkat cells; anti CD3 + 3000 ng) was 14.68 and the “day tumors reached a volume of 500 mm^3” value (B16 melanoma cells; 50 μg/injection iv once daily) was 19.3 ± 0.3 days. For the same molecule, the “day tumors reached a volume of 1000 mm^3” value (B16 melanoma cells; 50 μg/injection iv once daily) was 23.0 ± 0.4 days, the tumor growth delay (B16 melanoma cells; 50 μg/injection iv once daily) was 1.8 days and the “tumor volume after 20 days” value (B16 melanoma cells; FIG. 8, 50 μg/injection iv, control approximately 1000 mm^3) was “approximately 730 mm^3”. The “inhibition of hypoxia-induced apoptosis” value ([1]; 10 μg/ml mFLINT, 8 hours hypoxia, 16 hours normal O2) was 90%, the “inhibition of hypoxia/reperfusion-induced apoptosis” value ([1]; mFLINT 2 μg/ml or 5 μg/ml, duplicate experiments) was “essentially complete inhibition” and the “binding in dot blot” value (TRANCE) was “No appreciable binding”.
